The record followed here is patent publication US20190153078A1 (Sanofi, published 2019).

The target of test [1] is T1, C. difficile toxin A from strain VPI10463 (ATCC 43255), toxinotype 0 (Clostridium difficile, UniProt P16154 1-2710). The test is described as follows: cell-based or functional assay.
The target in test [2] is T1, C. difficile toxin A from strain …. Nature of the test: cell-based or functional assay. This is another data set of the same source.
Test [3] shares this target. Nature of the test: BLI (Octet Red96), antibody on Protein A sensor, toxin in solution. On the technique in general: In BLI a coated tip is dipped into the sample, and binding shifts an interference pattern.
For test [4] the target is unchanged.
Test [5] concerns the target T2, C. difficile toxin B from strain VPI10463 (ATCC 43255), toxinotype 0 (Clostridium difficile, UniProt P18177 2-2366). The test is described as follows: cell-based or functional assay.
Test [6] has as its target T2, C. difficile toxin B from strain …. Nature of the test: BLI (Octet Red96), antibody on Protein A sensor, toxin in solution.
Test [7] has the same target.
For test [8] the target is unchanged. The test is described as follows: cell-based or functional assay. This is another data set of the same source.
Test [9] deals with Mutant Toxin B MLD (1-91) + LPETGG + 6X HIS (Clostridium difficile). The test is described as follows: BLI (Octet RED96).
Test [10] addresses T3, WT Toxin B MLD (1-91) + LPETGG + 6X HIS (Clostridium difficile). The test is described as follows: Western, dot blot, Octet (summary).
Test [11] deals with T3, WT Toxin B MLD (1-91) + LPETGG + 6X HIS. The test is described as follows: BLI (Octet RED96).

Read-outs that look alike come from different tables or passages of the source.

B1: A1 antibody (antibody, V domains shown)
VH: QVHLQESGPGLVKPSETLSLTCTVSGDSISTYYWSWIRQPPGKGLEWIGYVYYTGSTNYSPSLEGRVTLSVDTSKNQFSLKLNSVSAADTAVYYCARGAAEWLRFRGFFDYWGQGILVSVSS
VL: EVVLTQSPGTLSLSPGERATLSCRASQSVTNGFLAWYQQKPGQAPRVLIYGASSRATGIPDRFSGSGSGTDFTLTISRLEPEDFAMYYCQQYGLSGTFGQGTKLEIKR
As usually defined, the Kd is the constant that tells how readily two partners part at equilibrium. A low value points to tighter binding. For orientation: koff means the first-order rate constant of dissociation. Read a high koff as a short-lived complex. By kon is commonly meant a measure of how fast the partners come together. Low readings indicate slower complex formation, high ones faster complex formation. With B1, in test [1], the “% completion TEER (T-84 cells)” value was determined as 80% and the “TEER NT50, nM (T-84 cells)” value was < 1.3 nM. In test [2], the “% completion cytotox (Vero cells)” value is < 90% and the “Cytotox NT50, pM (Vero cells)” value turned out to be 48 pM. For the same molecule, in test [3], the Kd was < 0.01 nM, the koff was < 3.75e-06 s⁻¹ and the kon stood at 375000 M⁻¹ s⁻¹.

B2: A2 antibody (antibody, V domains shown)
VH: QVQLQESGPGLVKPSETLSLTCTVSGGSISTYYWSWIRQSPGKGLEWMGYIYYSGSTNYNPSLESRVTIAVDTSKNQFSLQLTSVTAADTAVYYCARGAAEWLRFRGFFDSWGQGTLVTVSS
VL: ENVLTQSPGTLSLSPGERATLSCRASHSVTNNFLAWYQQKPGQAPRLLIYGVSSRATGIPDRFSGSGSGTDFTLTISRLEPEDFAVYYCQQYGVSGTFGQGTKLEIKR
B2: in test [1], the “% completion TEER (T-84 cells)” value came to 75% and the “TEER NT50, nM (T-84 cells)” value was found to be 1.8 nM. Moreover, in [2], the “% completion cytotox (Vero cells)” value amounted to 100% and the “Cytotox NT50, pM (Vero cells)” value turned out to be 55 pM. In test [3], binding was put at a Kd of 0.00443 nM, the koff was determined as 1.58e-06 s⁻¹ and the kon amounted to 356000 M⁻¹ s⁻¹. Besides, in test [4], the Kd is < 0.01 nM.

B3: A4 antibody (antibody, V domains shown)
VH: QVHLVESGGGVVQPGRSLRLSCATFGLNFSDYGFHWVRQAPGKGLEWVAVTSYDGSNKYYAEFVKGRFTISRDNYKNTVYLQMNSLRLEDTAVYYCARDLAPYNFWSGYGNNWFDPWGQGTLVTVSS
VL: EIVLTQSPGTLSLSPGERATLSCRASQSVTGTSLAWFQQKPGQAPRLLIYGASSRATGIPDRFSGSGSGTDFTLTISRLEPEDFAVYYCQQYGSSPRLTFGGGTKVEIKR
As for B3, in test [1], the “TEER NT50, nM (T-84 cells)” value is 4.7 nM. Also, in [2], the “% completion cytotox (Vero cells)” value was < 90% and the “Cytotox NT50, pM (Vero cells)” value worked out at 3400 pM. For the same molecule, in [3], the Kd worked out at 0.000557 nM, the koff stood at 3.09e-07 s⁻¹ and the kon was determined as 555000 M⁻¹ s⁻¹. Also, in [4], the Kd is < 0.01 nM.

B4: B6 antibody (antibody, V domains shown)
VH: EVQLVESGGGLVQPGGSLRLSCAASGFTFTTSTMNWVRQAPGKGLEWVSYITRTSTVIYYADSVKGRFTISRDNAKNSLYLQMSSLRAEDTAVYYCARGVRDIGGNGFDYWGQGTLVTVSS
VL: EIVLTQSPGTLSLSPGERATLSCRASQSVTSSYLAWYQQKTGQAPRLLIYGASSRATGIPDRFSGSGSGTDFTLTIARLEPEDFAVYYCQQYGSSPPYTFGQGTKLEIKR
For B4, in test [5], the “% completion TEER (T-84 cells)” value is 92% and the “TEER NT50 (T-84 cells)” value was determined as 100. In test [6], this molecule came in with a Kd of 0.000726 nM, a koff of 5.3e-07 s⁻¹ and a kon of 730000 M⁻¹ s⁻¹. Moreover, the Kd in [7] is < 0.01 nM.

B5: A5 antibody (antibody, V domains shown)
VH: QVHLVESGGGVVQPGRSLRLSCATFGLNFSDYGFHWVRQAPGKGLEWVAVTSYDGSNKYYAEFVKGRFTISRDNYKNTVYLQMNSLRLEDTAVYYCARDLAPYNFWSGYGNNWFDPWGQGTLVTVSS
VL: EIVMTQSPATLSVSPGERATLSCRASQSISSNLAWYQQKPGQAPRLLIYDASTRATGIPARFSGSGSGTEFTLTISSLQSEDFAVYYCQQYNDWLVTFGQGTKVEIKR
B5: the “TEER NT50, nM (T-84 cells)” value in [1] is 7.3 nM. In test [2], the “% completion cytotox (Vero cells)” value came out at 75% and the “Cytotox NT50, pM (Vero cells)” value came out at 2700 pM. In [3], the Kd is 0.144 nM, the koff came out at 4.49e-05 s⁻¹ and the kon was 312000 M⁻¹ s⁻¹.

B6: B4 antibody (antibody, V domains shown)
VH: EVQLVESGGGLVKPGGSLRVSCAASGFTFSSYSMNWIRQAPGKGLEWVSSISSNSSYIYYADSVKGRFTISRDNAKNSLYLQMNSLRAEDTAVYYCARDRDYSNYLTAWGQGTLVTVSS
VL: QSVLTQPPSVSGAPGQRVTISCTGSSSNIGAGYDVHWYRQLPGTAPKLLIYGKNNRPSGVPNRFSGSKSGTSASLAITGLQAEDEADYYCQSYDSSLSGSVFGGGTKLTVLG
As for B6, in test [5], the “% completion TEER (T-84 cells)” value came to 93% and the “TEER NT50 (T-84 cells)” value came to 130. Also, in [6], the Kd worked out at 0.121 nM, the koff is 6.44e-05 s⁻¹ and the kon stood at 531000 M⁻¹ s⁻¹.

B7: B5 antibody (antibody, V domains shown)
VH: QVHLQESGPGLVKPSGTLSLTCAVSGGSISYTNWWSWVRLPPGKGLEWIGEIYHSRSTNYNPSLKSRVTMSIDKSKNLFSLKLNSVTAADTAIYYCAKAAYTRDGIQPFDNWGQGTLVTVSS
VL: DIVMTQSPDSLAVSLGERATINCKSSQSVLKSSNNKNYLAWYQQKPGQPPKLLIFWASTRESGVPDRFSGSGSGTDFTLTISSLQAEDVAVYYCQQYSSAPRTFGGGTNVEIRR
B7: in test [5], the “% completion TEER (T-84 cells)” value amounted to 70% and the “TEER NT50 (T-84 cells)” value was found to be 200. Moreover, in test [8], the “% completion cytotox (Vero cells)” value worked out at 95% and the “Cytotox NT50, pM (Vero cells)” value is 2900 pM. Besides, in test [6], the Kd is 0.202 nM, the koff was 9.62e-05 s⁻¹ and the kon turned out to be 477000 M⁻¹ s⁻¹.

B8: A3 antibody (antibody, V domains shown)
VH: MQLLESGGGLVKPGGSLRLSCAASGFTFSNAWMSWVRQGPGKGLEWVGRIKSKTDGGTTDYAAPVKGRFSISRNDSNNTLFLQMNSLKTEDTAVYYCTTGPQIVVVAGATSRDQPNYYYYGLDVWGLGTTVTVSS
VL: QSVLTQPPSASGTPGQRVTISCSGSSSNIGINTVNWYQQLPGTAPKLLIYKSNLRPSGVPDRFSGSKSGTSASLAISGLRSEDEADYYCAAWDDSLTGLYVFGTGTKVTVLG
As to B8, in [1], the “% completion TEER (T-84 cells)” value came out at 80% and the “TEER NT50, nM (T-84 cells)” value came out at 1.3 nM. Moreover, in [2], the “% completion cytotox (Vero cells)” value was 90% and the “Cytotox NT50, pM (Vero cells)” value amounted to 980 pM. Further, in [3], the Kd worked out at 0.461 nM, the koff stood at 7.77e-05 s⁻¹ and the association rate constant (kon) was 169000 M⁻¹ s⁻¹.

B9: B1 antibody (antibody, V domains shown)
VH: EVQLVESGGGLVQPGGSLRLSCAASGFTFRSYWMHWVRQVPGKGLVWVSCINKEGSSTTYADSVKGRFTISRDNAKNTLYLEMNSLRADDTAVYYCLRGYDVDYWGQGTLVTVSS
VL: QAVLTQPSSLSASPGASVSLTCTLRSGINVGTYRIYWYQQKPGSPPRYLLRYKSGLDKHQGSGVPSRFSGSKDDSANAGILFISGLQSEDEADYYCLIWHSSAVVFGGGTKLTVLG
As for B9, in [5], the “% completion TEER (T-84 cells)” value was found to be 91% and the “TEER NT50 (T-84 cells)” value was 270. Further, the binding result in test [9] is recorded as “no binding”. Besides, in [8], the “% completion cytotox (Vero cells)” value was 95% and the “Cytotox NT50, pM (Vero cells)” value turned out to be 49 pM. Besides, the binding result in test [10] is “no binding”. In [6], this molecule registered a Kd of 0.0477 nM, a koff of 2.79e-05 s⁻¹ and a kon of 585000 M⁻¹ s⁻¹.

B10: B3 antibody (antibody, V domains shown)
VH: EVQLVESGGGLVQPGGSLRLSCSASGFTFRSYWMHWVRQVPGKGLVWVSCINKEGSSTTYADSVKGRFTISRDNAKNTLYLQMNSLRADDTAVYYCLRGYDVDYWGQGTLVTVSS
VL: QAVLTQPSSLSASPGASVSLTCTLRSGVNVGSYRIYWYQQKPGSPPRYLLRYKSGLDKHQGSGVPSRFSGSKDDSANAGILFISGLQSENDADYYCLIWHNSAVVFGGGTKLTVLG
As for B10, in test [5], the “% completion TEER (T-84 cells)” value came out at 95% and the “TEER NT50 (T-84 cells)” value turned out to be 600. In test [9], the binding result was “no binding”. Further, the binding result in test [11] is recorded as “no binding”. Moreover, in [8], the “% completion cytotox (Vero cells)” value was 100% and the “Cytotox NT50, pM (Vero cells)” value came to 100 pM. For the same molecule, in [6], binding was characterised by a dissociation constant (Kd) of 0.487 nM, the dissociation rate constant (koff) was found to be 9.4e-05 s⁻¹ and the kon amounted to 193000 M⁻¹ s⁻¹.
